B1: DAX-1: DAX1 (NR0B1), cDNA driver (protein, UniProt P51843 1-470, looked up)
Nuclear receptor subfamily 0 …: MAGENHQWQGSILYNMLMSAKQTRAAPEAPETRLVDQCWGCSCGDEPGVGREGLLGGRNVALLYRCCFCGKDHPRQGSILYSMLTSAKQTYAAPKAPEATLGPCWGCSCGSDPGVGRAGLPGGRPVALLYRCCFCGEDHPRQGSILYSLLTSSKQTHVAPAAPEARPGGAWWDRSYFAQRPGGKEALPGGRATALLYRCCFCGEDHPQQGSTLYCVPTSTNQAQAAPEERPRAPWWDTSSGALRPVALKSPQVVCEAASAGLLKTLRFVKYLPCFQVLPLDQQLVLVRNCWASLLMLELAQDRLQFETVEVSEPSMLQKILTTRRRETGGNEPLPVPTLQHHLAPPAEARKVPSASQVQAIKCFLSKCWSLNISTKEYAYLKGTVLFNPDVPGLQCVKYIQGLQWGTQQILSEHTRMTHQGPHDRFIELNSTLFLLRFINANVIAELFFRPIIGTVSMDDMMLEMLCTKI
B2: SHP: Small Heterodimer Partner (NR0B2), cDNA driver (protein, UniProt Q15466 1-257, looked up)
Nuclear receptor subfamily 0 …: MSTSQPGACPCQGAASRPAILYALLSSSLKAVPRPRSRCLCRQHRPVQLCAPHRTCREALDVLAKTVAFLRNLPSFWQLPPQDQRRLLQGCWGPLFLLGLAQDAVTFEVAEAPVPSILKKILLEEPSSSGGSGQLPDRPQPSLAAVQWLQCCLESFWSLELSPKEYACLKGTILFNPDVPGLQAASHIGHLQQEAHWVLCEVLEPWCPAAQGRLTRVLLTASTLKSIPTSLLGDLFFRPIIGDVDIAGLLGDMLLLR
B3: NR4a3: NR4a3 (NR4A3; NOR1), nuclear hormone receptor cDNA driver (protein, UniProt Q92570 1-626, looked up)
Nuclear receptor subfamily 4 …: MPCVQAQYSPSPPGSSYAAQTYSSEYTTEIMNPDYTKLTMDLGSTEITATATTSLPSISTFVEGYSSNYELKPSCVYQMQRPLIKVEEGRAPSYHHHHHHHHHHHHHHQQQHQQPSIPPASSPEDEVLPSTSMYFKQSPPSTPTTPAFPPQAGALWDEALPSAPGCIAPGPLLDPPMKAVPTVAGARFPLFHFKPSPPHPPAPSPAGGHHLGYDPTAAAALSLPLGAAAAAGSQAAALESHPYGLPLAKRAAPLAFPPLGLTPSPTASSLLGESPSLPSPPSRSSSSGEGTCAVCGDNAACQHYGVRTCEGCKGFFKRTVQKNAKYVCLANKNCPVDKRRRNRCQYCRFQKCLSVGMVKEVVRTDSLKGRRGRLPSKPKSPLQQEPSQPSPPSPPICMMNALVRALTDSTPRDLDYSRYCPTDQAAAGTDAEHVQQFYNLLTASIDVSRSWAEKIPGFTDLPKEDQTLLIESAFLELFVLRLSIRSNTAEDKFVFCNGLVLHRLQCLRGFGEWLDSIKDFSLNLQSLNLDIQALACLSALSMITERHGLKEPKRVEELCNKITSSLKDHQSKGQALEPTESKVLGALVELRKICTLGLQRIFYLKLEDLVSPPSIIDKLFLDTLPF
B4: GCNF: Germ Cell Nuclear Factor (NR6A1, GCNF1), cDNA driver (protein, UniProt Q15406 1-480, looked up)
Nuclear receptor subfamily 6 …: MERDEPPPSGGGGGGGSAGFLEPPAALPPPPRNGFCQDELAELDPGTISVSDDRAEQRTCLICGDRATGLHYGIISCEGCKGFFKRSICNKRVYRCSRDKNCVMSRKQRNRCQYCRLLKCLQMGMNRKAIREDGMPGGRNKSIGPVQISEEEIERIMSGQEFEEEANHWSNHGDSDHSSPGNRASESNQPSPGSTLSSSRSVELNGFMAFREQYMGMSVPPHYQYIPHLFSYSGHSPLLPQQARSLDPQSYSLIHQLLSAEDLEPLGTPMLIEDGYAVTQAELFALLCRLADELLFRQIAWIKKLPFFCELSIKDYTCLLSSTWQELILLSSLTVYSKQIFGELADVTAKYSPSDEELHRFSDEGMEVIERLIYLYHKFHQLKVSNEEYACMKAINFLNQDIRGLTSASQLEQLNKRYWYICQDFTEYKYTHQPNRFPDLMMCLPEIRYIAGKMVNVPLEQLPLLFKVVLHSCKTSVGKE

Tested on: mCAR promoter
Assay: NHR-promoter luciferase screen, mCAR promoter
Assay type: cell-based, mouse
Conditions: mCAR promoter-luciferase, CV-1 cells, NHR +/- ligand, control = 1.00
Method in brief: (§1)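 CV-1 cells were co-transfected with 50 ng NHR (homodimer or NHR/RXR heterodimer), 100 ng promoter-luciferase construct and 50 ng LacZ. Luciferase was normalized to LacZ and to a no-NHR/no-ligand control.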

Going from B1 to B2, the “luciferase activity normalized to lacZ activity and to a control, mCAR” value falls from 0.96 to 0.95.

Going from B3 to B4, the “luciferase activity normalized to lacZ activity and to a control, mCAR” value rises from 0.57 to 0.78.

Same assay, conditions: mCAR promoter; HR/ligand component

First: B1
Second: B2
The “Luc. act., normalized to lacZ” value of the first is higher: 36.74 for the first, 36.17 for the second.

First: B3
Second: B4
The “Luc. act., normalized to lacZ” value of the first is lower: 21.58 for the first, 29.68 for the second.

Going from B1 to B2, the “Normalized Luc. act., normalized to control” value falls from 1.0 to 0.9.

First: B3
Second: B4
The “Normalized Luc. act., normalized to control” value of the first is lower: 0.6 for the first, 0.8 for the second.

Tested on: hG6PD promoter
Assay: NHR-promoter luciferase screen, hG6PD promoter
Assay type: cell-based, human
Conditions: G6PD promoter reporter; co-transfected HR, without or with its ligand
Method in brief: as §1

First: B1
Second: B2
The “Luc. act., normalized to lacZ” value of the first is higher: 46.0 for the first, 43.2 for the second.

Going from B3 to B4, the “Luc. act., normalized to lacZ” value rises from 43.4 to 46.1.

Same assay, conditions: G6PD promoter reporter; co-transfected HR, without or with its ligand; relative to control

B1 and B2 are the same in “Normalized Luc. act., normalized to control” value: 1.2 for the first, 1.2 for the second.

B3 and B4 are the same in “Normalized Luc. act., normalized to control” value: 1.2 for the first, 1.2 for the second.

Same assay, conditions: hG6PD promoter-luciferase, CV-1 cells, NHR +/- ligand, control = 1.00

Going from B1 to B2, the “luciferase activity normalized to lacZ activity and to a control, hG6PD” value falls from 1.23 to 1.15.

First: B3
Second: B4
The “luciferase activity normalized to lacZ activity and to a control, hG6PD” value of the first is lower: 1.16 for the first, 1.23 for the second.

Tested on: Bmal1 promoter
Assay: NHR-promoter luciferase screen, Bmal1 promoter
Assay type: cell-based, mouse
Conditions: Bmal1 promoter; HR component without or with ligand
Method in brief: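 Luciferase activity was measured 48 h after transfection, normalized to LacZ and then to a control lacking NHR or ligand. CV-1 cells carried 100 ng Bmal1 reporter, 50 ng NHR construct and 50 ng LacZ.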

Compared with B1, B2 is lower in “Luc. act., normalized to lacZ” value: 19.6 for the first, 14.0 for the second.

Compared with B3, B4 is higher in “Luc. act., normalized to lacZ” value: 7.5 for the first, 13.7 for the second.

First: B1
Second: B2
The “Normalized Luc. act., normalized to control” value of the first is higher: 1.3 for the first, 0.9 for the second.

Going from B3 to B4, the “Normalized Luc. act., normalized to control” value rises from 0.5 to 0.9.

Same assay, conditions: transcription factor +/- ligand; control = 1.00

First: B1
Second: B2
The “mBmal1 promoter reporter activity” value of the first is higher: 1.25 for the first, 0.89 for the second.

First: B3
Second: B4
The “mBmal1 promoter reporter activity” value of the first is lower: 0.48 for the first, 0.88 for the second.

Tested on: RevErba promoter
Assay: NHR-promoter luciferase screen, RevErba (RVRa) promoter
Assay type: cell-based
Set-up: key to mRevErba promoter reporter activity / Normalized Luc. act., normalized to control: luciferase activity normalized to lacZ and to control (no NHR/ligand)
Conditions: RVRa promoter; HR component without or with ligand
Method in brief: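 Reporter readout: RevErbα promoter-driven luciferase, corrected for LacZ transfection efficiency and expressed relative to a no-receptor or no-ligand control. Receptors (V5H6-tagged, pcDNA3.1), alone or with RXR, plus any ligand, were expressed in CV-1 cells.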

Going from B1 to B2, the “Luc. act., normalized to lacZ” value falls from 29.4 to 22.7.

Compared with B3, B4 is higher in “Luc. act., normalized to lacZ” value: 14.7 for the first, 25.7 for the second.

First: B1
Second: B2
The “Normalized Luc. act., normalized to control” value of the first is higher: 1.1 for the first, 0.8 for the second.

First: B3
Second: B4
The “Normalized Luc. act., normalized to control” value of the first is lower: 0.5 for the first, 0.9 for the second.

Same assay, conditions: RVRa promoter; given only where activity is below control

Compared with B2, B3 is lower in “negative reciprocal of normalized Luc. act. (fold repression; Table 33)” value: −1.229 for the first, −1.9 for the second.

For B4, the “negative reciprocal of normalized Luc. act. (fold repression; Table 33)” value was −1.087.

Same assay, conditions: RVRa promoter; log10 of activity normalized to control

B1 and B2 are within 0.2 log units of each other in “normalized Luc. act. on a logarithmic scale (column without head, Table 33)” value: 0.02 for the first, −0.09 for the second.

First: B3
Second: B4
The “normalized Luc. act. on a logarithmic scale (column without head, Table 33)” value of the first is lower: −0.28 for the first, −0.04 for the second.

Same assay, conditions: transcription factor +/- ligand; control = 1.00

Going from B1 to B2, the “mRevErba promoter reporter activity” value falls from 1.05 to 0.81.

Compared with B3, B4 is higher in “mRevErba promoter reporter activity” value: 0.53 for the first, 0.92 for the second.

Tested on: mABCA1 promoter
Assay: NHR-promoter luciferase screen, mABCA1 promoter
Assay type: cell-based, mouse
Conditions: ABCA1 promoter; hormone receptor with or without its ligand
Method in brief: as §1

Compared with B1, B2 is higher in “Luc. act., normalized to lacZ” value: 5.8 for the first, 6.8 for the second.

Going from B3 to B4, the “Luc. act., normalized to lacZ” value rises from 6.8 to 7.6.

Same assay, conditions: ABCA1 promoter; hormone receptor with or without its ligand; relative to control

Compared with B1, B2 is higher in “Normalized Luc. act., normalized to control” value: 1.0 for the first, 1.2 for the second.

Going from B3 to B4, the “Normalized Luc. act., normalized to control” value rises from 1.2 to 1.4.

Same assay, conditions: transcription factor +/- ligand; control = 1.00

First: B1
Second: B2
The “mABCA1 promoter reporter activity” value of the first is lower: 1.04 for the first, 1.21 for the second.

Compared with B3, B4 is higher in “mABCA1 promoter reporter activity” value: 1.21 for the first, 1.36 for the second.
